The values that follow come from IntAct's records for PubMed 31515488.

B1: Elongin-A2 (Homo sapiens), Q8IYF1 (parent)
chain: MAAGSTTLHAVEKLQVRLATKTEPKKLEKYLQKLSALPMTADILAETGIRKTVKRLRKHQHVGDFARDLAARWKKLVLVDRNTRPGPQDPEESASRQRFGEALQDQEKAWGFPENATAPRSPSHSPEHRRTARRTPPGQQRPHPRSHSREPRAERKCPRIAPADSGRYRASPTRTAPLRMPEGPEPAAPGKQPGRGHTHAAQGGPLLCPGCQGQPQGKAVVSHSKGHKSSRQEKRPLCAQGDWHSPTLIREKSCGACLREETPRMPSWASARDRQPSDFKTDKEGGQAGSGQRVPALEEAPDSHQKRPQHSHSNKKRPSLDGRDPGNGTHGLSPEEKEQLSNDRETQEGKPPTAHLDRTSVSSLSEVEEVDMAEEFEQPTLSCEKYLTYDQLRKQKKKTGKSATTALGDKQRKANESKGTRESWDSAKKLPPVQESQSERLQAAGADSAGPKTVPSHVFSELWDLSEAWMQANYDPLSDSDSMTSQAKPEALSSPKFREEAAFPGRRVNAKMPVYSGSRPACQLQVPTLRQQCAQVLRNNPDALSDVGEVPYWVLEPVLEGWRPDQLYRRKKDNHALVRETDELRRNHCFQDFKEEKPQENKTWREQYLRLPDAPEQRLRVMTTNIRSARGNNPNGREAKMICFKSVAKTPYDTSRRQEKSAGDADPENGEIKPASKPAGSSHTPSSQSSSGGGRDSSSSILRWLPEKRANPCLSSSNEHAAPAAKTRKQAAKKVAPLMAKAIRDYKRRFSRR
partner: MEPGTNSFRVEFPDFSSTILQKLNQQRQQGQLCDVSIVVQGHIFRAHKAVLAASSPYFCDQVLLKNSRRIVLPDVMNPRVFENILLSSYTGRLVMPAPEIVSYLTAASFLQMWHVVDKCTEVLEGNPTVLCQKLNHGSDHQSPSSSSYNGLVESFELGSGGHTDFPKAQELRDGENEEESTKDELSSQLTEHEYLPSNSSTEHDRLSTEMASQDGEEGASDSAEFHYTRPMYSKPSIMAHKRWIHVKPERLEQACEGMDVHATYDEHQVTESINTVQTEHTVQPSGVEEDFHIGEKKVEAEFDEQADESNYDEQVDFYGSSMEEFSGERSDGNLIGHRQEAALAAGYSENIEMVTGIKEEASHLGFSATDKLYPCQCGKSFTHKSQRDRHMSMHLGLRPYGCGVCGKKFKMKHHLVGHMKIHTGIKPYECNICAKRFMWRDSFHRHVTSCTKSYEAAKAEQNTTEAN
B2: Ribosome quality control complex subunit TCF25 (Homo sapiens), Q9BQ70 (parent)
chain: MSRRALRRLRGEQRGQEPLGPGALHFDLRDDDDAEEEGPKRELGVRRPGGAGKEGVRVNNRFELINIDDLEDDPVVNGERSGCALTDAVAPGNKGRGQRGNTESKTDGDDTETVPSEQSHASGKLRKKKKKQKNKKSSTGEASENGLEDIDRILERIEDSTGLNRPGPAPLSSRKHVLYVEHRHLNPDTELKRYFGARAILGEQRPRQRQRVYPKCTWLTTPKSTWPRYSKPGLSMRLLESKKGLSFFAFEHSEEYQQAQHKFLVAVESMEPNNIVVLLQTSPYHVDSLLQLSDACRFQEDQEMARDLVERALYSMECAFHPLFSLTSGACRLDYRRPENRSFYLALYKQMSFLEKRGCPRTALEYCKLILSLEPDEDPLCMLLLIDHLALRARNYEYLIRLFQEWEAHRNLSQLPNFAFSVPLAYFLLSQQTDLPECEQSSARQKASLLIQQALTMFPGVLLPLLESCSVRPDASVSSHRFFGPNAEISQPPALSQLVNLYLGRSHFLWKEPATMSWLEENVHEVLQAVDAGDPAVEACENRRKVLYQRAPRNIHRHVILSEIKEAVAALPPDVTTQSVMGFDPLPPSDTIYSYVRPERLSPISHGNTIALFFRSLLPNYTMEGERPEEGVAGGLNRNQGLNRLMLAVRDMMANFHLNDLEAPHEDDAEGEGEWD
B3: Protein FAM13C (Homo sapiens), Q8NE31 (parent)
chain: MFSCFCFSLQDNSFSSTTVTECDEDPVSLHEDQTDCSSLRDENNKENYPDAGALVEEHAPPSWEPQQQNVEATVLVDSVLRPSMGNFKSRKPKSIFKAESGRSHGESQETEHVVSSQSECQVRAGTPAHESPQNNAFKCQETVRLQPRIDQRTAISPKDAFETRQDLNEEEAAQVHGVKDPAPASTQSVLADGTDSADPSPVHKDGQNEADSAPEDLHSVGTSRLLYHITDGDNPLLSPRCSIFSQSQRFNLDPESAPSPPSTQQFMMPRSSSRCSCGDGKEPQTITQLTKHIQSLKRKIRKFEEKFEQEKKYRPSHGDKTSNPEVLKWMNDLAKGRKQLKELKLKLSEEQGSAPKGPPRNLLCEQPTVPRENGKPEAAGPEPSSSGEETPDAALTCLKERREQLPPQEDSKVTKQDKNLIKPLYDRYRIIKQILSTPSLIPTIQEEEDSDEDRPQGSQQPSLADPASHLPVGDHLTYSNETEPVRALLPDEKKEVKPPALSMSNLHEATMPVLLDHLRETRADKKRLRKALREFEEQFFKQTGRSPQKEDRIPMADEYYEYKHIKAKLRLLEVLISKQDVAKTI
B4: Keratin, type I cytoskeletal 20 (Homo sapiens), P35900 (parent)
chain: MDFSRRSFHRSLSSSLQAPVVSTVGMQRLGTTPSVYGGAGGRGIRISNSRHTVNYGSDLTGGGDLFVGNEKMAMQNLNDRLASYLEKVRTLEQSNSKLEVQIKQWYETNAPRAGRDYSAYYRQIEELRSQIKDAQLQNARCVLQIDNAKLAAEDFRLKYETERGIRLTVEADLQGLNKVFDDLTLHKTDLEIQIEELNKDLALLKKEHQEEVDGLHKHLGNTVNVEVDAAPGLNLGVIMNEMRQKYEVMAQKNLQEAKEQFERQTAVLQQQVTVNTEELKGTEVQLTELRRTSQSLEIELQSHLSMKESLEHTLEETKARYSSQLANLQSLLSSLEAQLMQIRSNMERQNNEYHILLDIKTRLEQEIATYRRLLEGEDVKTTEYQLSTLEERDIKKTRKIKTVVQEVVDGKVVSSEVKEVEENI
partner: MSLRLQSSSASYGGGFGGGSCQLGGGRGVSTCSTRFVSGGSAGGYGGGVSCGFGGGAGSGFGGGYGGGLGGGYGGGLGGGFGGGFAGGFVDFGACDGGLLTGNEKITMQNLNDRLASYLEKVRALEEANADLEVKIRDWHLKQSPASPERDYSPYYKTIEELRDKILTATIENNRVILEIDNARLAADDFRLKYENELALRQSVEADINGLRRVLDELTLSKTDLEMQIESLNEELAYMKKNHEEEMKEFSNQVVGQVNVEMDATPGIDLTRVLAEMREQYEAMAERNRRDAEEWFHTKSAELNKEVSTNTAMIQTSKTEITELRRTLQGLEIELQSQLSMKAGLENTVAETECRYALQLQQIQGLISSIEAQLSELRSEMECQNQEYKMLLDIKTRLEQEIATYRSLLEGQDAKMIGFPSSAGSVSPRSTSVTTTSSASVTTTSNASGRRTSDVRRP
B5: Zinc finger protein 544 (Homo sapiens), Q6NX49 (parent)
chain: MEARSMLVPPQASVCFEDVAMAFTQEEWEQLDLAQRTLYREVTLETWEHIVSLGLFLSKSDVISQLEQEEDLCRAEQEAPRDWKATLEENRLNSEKDRAREELSHHVEVYRSGPEEPPSLVLGKVQDQSNQLREHQENSLRFMVLTSERLFAQREHCELELGGGYSLPSTLSLLPTTLPTSTGFPKPNSQVKELKQNSAFINHEKNGADGKHCESHQCARAFCQSIYLSKLGNVETGKKNPYEYIVSGDSLNYGSSLCFHGRTFSVKKSDDCKDYGNLFSHSVSLNEQKPVHFGKSQYECDECRETCSESLCLVQTERSGPGETPFRCEERCAAFPMASSFSDCNIIQTTEKPSVCNQCGKSFSCCKLIHQRTHTGEKPFECTQCGKSFSQSYDLVIHQRTHTGEKPYECDLCGKSFTQRSKLITHQRIHTGEKPYQCIECRKSFRWNSNLIVHQRIHTGEKPYECTHCGKSFSQSYELVTHKRTHTGEKPFKCTQCGKSFSQKYDLVVHQRTHTGEKPYECNLCGKSFSQSSKLITHQRIHTGEKPYQCIECGKSFRWNSNLVIHQRIHTGEKPYDCTHCGKSFSQSYQLVAHKRTHTGEKPYECNECGKAFNRSTQLIRHLQIHTGEKPYKCNQCNKAFARSSYLVMHQRTHTGEKPFECSQCGKAFSGSSNLLSHHRIHSGEKPYECSDCGKSFRQQSQLVVHRRTHTGEKP
partner: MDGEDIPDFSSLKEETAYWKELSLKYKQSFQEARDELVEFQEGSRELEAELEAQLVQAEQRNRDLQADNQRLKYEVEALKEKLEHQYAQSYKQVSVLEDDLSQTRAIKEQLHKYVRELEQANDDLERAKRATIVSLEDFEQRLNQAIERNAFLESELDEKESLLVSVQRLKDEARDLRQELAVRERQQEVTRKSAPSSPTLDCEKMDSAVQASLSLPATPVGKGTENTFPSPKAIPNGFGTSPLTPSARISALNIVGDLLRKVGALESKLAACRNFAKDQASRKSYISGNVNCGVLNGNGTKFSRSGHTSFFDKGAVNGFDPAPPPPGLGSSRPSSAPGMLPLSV

Variants of B1 are the subject of one assay. As to conditions: with zbt43_human ZBTB43, O43298.
On to C254F, for which the “effect of a mutation on the interaction” value is on record as “disrupting interaction strength”.
Consider D302H, for which the “effect of a mutation on the interaction” value is “with no effect”.
On to G505R, for which the “effect of a mutation on the interaction” value is on record as “with no effect”.
Regarding A446T, the “effect of a mutation on the interaction” value is “with no effect”.

The variants in a further assay derive from B2. The conditions noted are these: with sat1_human SAT1, P21673.
sat1_human SAT1, P21673, sequence (P21673 whole entry): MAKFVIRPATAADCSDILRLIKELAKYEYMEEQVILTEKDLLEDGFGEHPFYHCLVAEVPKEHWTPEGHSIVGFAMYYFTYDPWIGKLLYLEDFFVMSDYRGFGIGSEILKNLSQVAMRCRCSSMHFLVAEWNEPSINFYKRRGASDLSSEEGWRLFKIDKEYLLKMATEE
For V526A, the “effect of a mutation on the interaction” value is recorded as “with no effect”.

Variants of B3 are the subject of a further assay. The conditions noted are these: with kif2a_human KIF2A.
With K97R, the “effect of a mutation on the interaction” value was “with no effect”.

The variants in the next assay derive from B3. As to conditions: with tfp11_human TFIP11, Q9UBB9.
tfp11_human TFIP11, Q9UBB9, sequence (Q9UBB9 whole entry): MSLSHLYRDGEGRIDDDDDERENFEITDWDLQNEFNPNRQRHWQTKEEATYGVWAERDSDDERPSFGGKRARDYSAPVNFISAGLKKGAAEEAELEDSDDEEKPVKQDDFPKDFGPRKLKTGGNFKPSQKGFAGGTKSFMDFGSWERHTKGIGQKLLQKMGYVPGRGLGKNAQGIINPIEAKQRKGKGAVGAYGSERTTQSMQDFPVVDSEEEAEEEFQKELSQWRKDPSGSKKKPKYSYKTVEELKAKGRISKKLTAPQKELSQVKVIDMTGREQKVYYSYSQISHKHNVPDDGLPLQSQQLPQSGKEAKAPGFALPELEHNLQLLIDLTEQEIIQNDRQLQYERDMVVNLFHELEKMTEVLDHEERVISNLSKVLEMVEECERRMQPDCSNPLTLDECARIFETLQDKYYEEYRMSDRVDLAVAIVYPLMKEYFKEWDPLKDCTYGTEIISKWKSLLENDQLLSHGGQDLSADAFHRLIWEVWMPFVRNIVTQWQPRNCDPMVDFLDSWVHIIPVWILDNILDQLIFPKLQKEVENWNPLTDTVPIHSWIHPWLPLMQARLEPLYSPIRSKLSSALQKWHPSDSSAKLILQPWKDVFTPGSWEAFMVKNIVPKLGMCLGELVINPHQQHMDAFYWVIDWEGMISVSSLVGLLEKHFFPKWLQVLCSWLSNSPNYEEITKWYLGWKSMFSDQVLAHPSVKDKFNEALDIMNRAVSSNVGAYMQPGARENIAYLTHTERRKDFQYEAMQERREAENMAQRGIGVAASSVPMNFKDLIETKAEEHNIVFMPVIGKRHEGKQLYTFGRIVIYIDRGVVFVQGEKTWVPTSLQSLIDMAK
In the case of P147S, the “effect of a mutation on the interaction” value is “with no effect”.

The variants in a further assay derive from B4. As to conditions: with KRT13, P13646.
For the variant MDFSRRSFHRSLSSSLQAPVVSTVGMQRLGTTPSVYGGAGGRGIRISNSRHTVNYGSDLTGGGDLFVGNEKMAMQNLNDRLASYLEKVRTLEQSNSKLEVQIKQWYETNAPRAGRDYSAYYRQIEELRNQIKDAQLQNARCVLQIDNAKLAAEDFRLKYETERGIRLTVEADLQGLNKVFDDLTLHKTDLEIQIEELNKDLALLKKEHQEEVDGLHKHLGNTVNVEVDAAPGLNLGVIMNEMRQKYEVMAQKNLQEAKEQFERQTAVLQQQVTVNTEELKGTEVQLTELRRTSQSLEIELQSHLSMKESLEHTLEETKARYSSQLANLQSLLSSLEAQLMQIRSNMERQNNEYHILLDIKTRLEQEIATYRRLLEGEDVKTTEYQLSTLEERDIKKTRKIKTVVQEVVDGKVVSSEVKEVEENI [S129N], the “effect of a mutation on the interaction” value was “with no effect”.

Variants of B5 are the subject of a further assay. The conditions noted are these: with ndel1_human NDEL1, Q9GZM8.
In the case of K406M, the “effect of a mutation on the interaction” value is “with no effect”.
